Experimental data reported in paper PMC7049810, “Outer membrane lipoprotein NlpI scaffolds peptidoglycan hydrolases within multi‐enzyme complexes in Escherichia coli” (The EMBO Journal, 2020).

B1: PBP4, native, purified (enzyme, Escherichia coli, UniProt P24228 21-477, looked up)
chain: ANVDEYITQLPAGANLALMVQKVGASAPAIDYHSQQMALPASTQKVITALAALIQLGPDFRFTTTLETKGNVENGVLKGDLVARFGADPTLKRQDIRNMVATLKKSGVNQIDGNVLIDTSIFASHDKAPGWPWNDMTQCFSAPPAAAIVDRNCFSVSLYSAPKPGDMAFIRVASYYPVTMFSQVRTLPRGSAEAQYCELDVVPGDLNRFTLTGCLPQRSEPLPLAFAVQDGASYAGAILKDELKQAGITWSGTLLRQTQVNEPGTVVASKQSAPLHDLLKIMLKKSDNMIADTVFRMIGHARFNVPGTWRAGSDAVRQILRQQAGVDIGNTIIADGSGLSRHNLIAPATMMQVLQYIAQHDNELNFISMLPLAGYDGSLQYRAGLHQAGVDGKVSAKTGSLQGVYNLAGFITTASGQRMAFVQYLSGYAVEPADQRNRRIPLVRFESRLYKDIYQNN
modifications: where used as the labelled protein in MST: NT647 RED-NHS dye on amines
notes: PBP4 (DD-endopeptidase) of E. coli, 'native PBP4' purified after Kishida et al (2006); Untagged ('native'); source: E. coli BL21 (λDE3), purified (HiTrap Q, hydroxyapatite, Superdex 200)
B2: LpoA, purified (natural protein, Escherichia coli, UniProt P45464 27-678, looked up)
chain: CGTHTPDQSTAYMQGTAQADSAFYLQQMQQSSDDTRINWQLLAIRALVKEGKTGQAVELFNQLPQELNDAQRREKTLLAVEIKLAQKDFAGAQNLLAKITPADLEQNQQARYWQAKIDASQGRPSIDLLRALIAQEPLLGAKEKQQNIDATWQALSSMTQEQANTLVINADENILQGWLDLQRVWFDNRNDPDMMKAGIADWQKRYPNNPGAKMLPTQLVNVKAFKPASTNKIALLLPLNGQAAVFGRTIQQGFEAAKNIGTQPVAAQVAAAPAADVAEQPQPQTVDGVASPAQASVSDLTGEQPAAQPVPVSAPATSTAAVSAPANPSAELKIYDTSSQPLSQILSQVQQDGASIVVGPLLKNNVEELLKSNTPLNVLALNQPENIENRVNICYFALSPEDEARDAARHIRDQGKQAPLVLIPRSSLGDRVANAFAQEWQKLGGGTVLQQKFGSTSELRAGVNGGSGIALTGSPITLRATTDSGMTTNNPTLQTTPTDDQFTNNGGRVDAVYIVATPGEIAFIKPMIAMRNGSQSGATLYASSRSAQGTAGPDFRLEMEGLQYSEIPMLAGGNLPLMQQALSAVNNDYSLARMYAMGVDAWSLANHFSQMRQVQGFEINGNTGSLTANPDCVINRNLSWLQYQQGQVVPVS
modifications: where used as the labelled protein in MST: NT647 RED-Maleimide dye on cysteines
notes: called LpoA^sol in the TPase methods; also called LpoA^sol; fl-LpoA; source: purified as described previously in Jean et al (2014)

What was measured:
Details in all cases: both partners purified
PBP4, native, purified = target: B1; experiment: MST + pull-down; endopeptidases tested against each other, 'a combination of MST and Ni2+-NTA pull-down assays'; all combinations of MepM, MepS, PBP4, PBP7
[1] = target: T1, NlpI, soluble version lacking its membrane anchor (Escherichia coli, UniProt P0AFB1 20-294, where used as fl-NlpI in MST: NT647 RED-NHS dye on amines); experiment: MST; titration: NT647-labelled protein against a two-fold serial dilution (16 steps) of unlabelled ligand; 25 mM HEPES/NaOH, 150 mM NaCl, 0.05% Triton X-100, pH 7.5; Monolith NT.115; apparent constants; for NlpI with itself: dimer to monomers
T1 construct: Outer membrane lipoprotein NlpI of E. coli, soluble version lacking its membrane anchor; Homodimer by AUC; also called fl-NlpI (fluorescently labelled); His-NlpI; source: E. coli BL21 (λDE3), purified (HisTrap HP, Superdex 200)
T1 sequence (P0AFB1 20-294): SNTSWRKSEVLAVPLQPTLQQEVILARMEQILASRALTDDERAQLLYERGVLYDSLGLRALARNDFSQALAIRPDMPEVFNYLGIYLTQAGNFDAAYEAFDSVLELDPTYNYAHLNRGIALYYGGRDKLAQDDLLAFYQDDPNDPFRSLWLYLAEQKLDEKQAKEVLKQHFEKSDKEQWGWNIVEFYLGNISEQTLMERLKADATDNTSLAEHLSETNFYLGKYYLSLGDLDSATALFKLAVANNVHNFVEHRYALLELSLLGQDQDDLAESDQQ

PBP1A, purified = target: T2, PBP1A, purified (Escherichia coli, UniProt P02918 1-850, NT647 RED-NHS dye on amines (PBP1A was the labelled protein in all MST assays)); experiment: as above
T2 construct: Bifunctional peptidoglycan synthase PBP1A of E. coli; also called fl-PBP1A (fluorescently labelled); source: purified as described previously in Born et al (2006)
T2 sequence (looked up): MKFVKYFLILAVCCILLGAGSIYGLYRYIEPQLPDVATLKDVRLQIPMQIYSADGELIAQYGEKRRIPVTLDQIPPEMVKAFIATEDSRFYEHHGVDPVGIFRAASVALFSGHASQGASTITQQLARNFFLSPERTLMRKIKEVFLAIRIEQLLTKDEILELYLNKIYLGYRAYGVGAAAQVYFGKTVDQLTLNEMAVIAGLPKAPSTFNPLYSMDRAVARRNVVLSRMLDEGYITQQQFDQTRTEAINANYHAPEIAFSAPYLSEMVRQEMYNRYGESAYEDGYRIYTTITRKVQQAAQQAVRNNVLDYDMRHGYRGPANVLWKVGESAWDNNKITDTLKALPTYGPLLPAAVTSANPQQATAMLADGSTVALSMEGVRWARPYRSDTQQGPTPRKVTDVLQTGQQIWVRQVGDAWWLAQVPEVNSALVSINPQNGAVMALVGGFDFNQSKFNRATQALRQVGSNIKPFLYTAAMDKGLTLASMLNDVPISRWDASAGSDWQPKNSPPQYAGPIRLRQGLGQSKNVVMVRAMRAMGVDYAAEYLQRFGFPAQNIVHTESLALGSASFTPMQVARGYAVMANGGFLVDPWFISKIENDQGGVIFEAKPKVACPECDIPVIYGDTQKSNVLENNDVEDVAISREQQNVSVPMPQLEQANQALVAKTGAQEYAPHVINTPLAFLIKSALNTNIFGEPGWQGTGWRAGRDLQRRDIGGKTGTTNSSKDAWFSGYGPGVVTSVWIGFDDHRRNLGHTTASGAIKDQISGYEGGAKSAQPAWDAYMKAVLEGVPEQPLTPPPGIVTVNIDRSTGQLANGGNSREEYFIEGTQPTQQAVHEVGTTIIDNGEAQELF

LpoA, purified = target: B2; experiment: as above
[2] = target: T3, pre-formed NlpI-PBP4 complex (Escherichia coli, UniProt P0AFB1 20-294; P24228 21-477); experiment: MST; fixed ligand concentration assay: labelled MepS, LpoA or PBP1A with fixed unlabelled NlpI, PBP4, PBP7 or pre-formed complexes (NlpI 3 μM with 30 μM PBP4 or PBP7 for fl-MepS and fl-LpoA; PBP4 0.5 μM with NlpI 1 μM for fl-PBP1A); FNorm, or raw fluorescence for LpoA
T3 construct: NlpI of E. coli, soluble version lacking its membrane anchor, as the chain of m1; PBP4 of E. coli, native, as the chain of m5; NlpI 3 μM with excess PBP4 30 μM for assays with labelled MepS or LpoA; PBP4 0.5 μM with NlpI 1 μM for assays with labelled PBP1A; also called PBP4‐NlpI complex; PBP4‐NlpI; source: pre-formed from purified NlpI and purified PBP4, on ice for 10 min
T3 sequence (P0AFB1 20-294, one chain of several): as the sequence (P0AFB1 20-294) above

Row | Binder | Kd (PBP1A, purified) [nM] | Kd (LpoA, purified) [nM] | further results
1 | PBP7, purified (enzyme, Escherichia coli, UniProt P0AFI5 26-310, looked up, where used as the labelled protein in MST: NT647 RED-NHS dye on amines, PBP7 (DD-endopeptidase) of E. coli; source: E. coli BL21 (λDE3), purified (HisTrap HP, Superdex 200)) KTAAATTASQPEIASGSAMIVDLNTNKVIYSNHPDLVRPIASISKLMTAMVVLDARLPLDEKLKVDISQTPEMKGVYSRVRLNSEISRKDMLLLALMSSENRAAASLAHHYPGGYKAFIKAMNAKAKSLGMNNTRFVEPTGLSVHNVSTARDLTKLLIASKQYPLIGQLSTTREDMATFSNPTYTLPFRNTNHLVYRDNWNIQLTKTGFTNAAGHCLVMRTVINNKPVALVVMDAFGKYTHFADASRLRTWIETGKVMPVPAAALSYKKQKAAQMAAAGQTAQND | 101 | 217 | binding result (PBP4, native, purified): binds; EC50 [1]: 422 nM
2 | B1 | 106 | 315 | –
3 | B2 | – | – | binding result [2]: binds
4 | MepS(C68A), catalytically inactive MepS (enzyme, Escherichia coli, UniProt P0AFV4 27-188, looked up, Peptidoglycan endopeptidase MepS of E. coli with C68A; the results call it MepS; source: E. coli BL21 (λDE3), purified (HisTrap HP, Superdex 200)) CSANNTAKNMHPETRAVGSETSSLQASQDEFENLVRNVDVKSRIMDQYADWKGVRYRLGGSTKKGIDASGFVQRTFREQFGLELPRSTYEQQEMGKSVSRSNLRTGDLVLFRAGSTGRHVGIYIGNNQFVHASTSSGVIISSMNEPYWKKRYNEARRVLSRS | 91 | – | –
5 | MepS (enzyme, Escherichia coli, UniProt P0AFV4 27-188, looked up, where used as fl-MepS in MST: NT647 RED-NHS dye on amines, Peptidoglycan endopeptidase MepS of E. coli, from pET21b-MepS-His (Singh et al, 2012); Construct from Singh et al, 2012; The methods list only MepS(C68A) as an unlabelled MST ligand; wild-type MepS is the labelled protein; also called fl-MepS (fluorescently labelled); MepS-His; source: E. coli BL21 (λDE3), purified (HisTrap HP, Superdex 200)) CSANNTAKNMHPETRAVGSETSSLQASQDEFENLVRNVDVKSRIMDQYADWKGVRYRLGGSTKKGIDCSGFVQRTFREQFGLELPRSTYEQQEMGKSVSRSNLRTGDLVLFRAGSTGRHVGIYIGNNQFVHASTSSGVIISSMNEPYWKKRYNEARRVLSRS | – | – | Kd [1]: 145 nM
